Experiment [1] has as its target H2A-H2B^30-130 (S. cerevisiae) (UniProt P04911). The experiment in a line: ITC.
Experiment [2] concerns the target full-length H2A-H2B (S. cerevisiae) (UniProt P04911). Put plainly: fluorescence polarisation.
The target of experiment [3] is H2A-H2B^30-130 bearing H2B M62A (S. cerevisiae) (UniProt P04911). Put plainly: ITC.
Experiment [4] deals with H2A-H2B^30-130 bearing H2B Y45A (S. cerevisiae) (UniProt P04911). The experiment in a line: ITC.
The target of experiment [5] is H2A-H2B^30-130 bearing H2B Y45A and M62A (S. cerevisiae) (UniProt P04911). Put plainly: ITC.
The target of experiment [6] is full-length H2A-H2B (S. cerevisiae) (UniProt P04911). The experiment in a line: ITC.
Experiment [7] addresses full-length FACT (Spt16-Pob3 heterodimer) (S. cerevisiae) (UniProt P32558). Put plainly: native gel or EMSA.
Experiment [8] addresses Fluorescein-Spt16 MBD (Spt16^965-990) (S. cerevisiae) (UniProt P32558). Put plainly: fluorescence polarisation.
In experiment [9] the target is full-length FACT (Spt16-Pob3 heterodimer) (S. cerevisiae) (UniProt P32558). Put plainly: ITC.

Where only a bound is given, the exact number is not on record here.

The values below come from publication PMC4620744.

Regarding “Pob3 D509A (from UniProt Q04636 505-529) (peptide)”, the dissociation constant (Kd) in [1] was 35000 nM.

In [2], “Pob3-MBD (Pob3^505-529) (from UniProt Q04636 505-529) (peptide)” showed a concentration for half-maximal inhibition (IC50) of 15700 nM. Also, the Ki in experiment [2] amounted to 1300 nM. In addition, the fold decrease in affinity against H2A-H2B^30-130 in experiment [3] stood at 9 fold; in [4], 12 fold; in [5], 41 fold.

Consider “Pob3-MBD DED509-511AAA (from UniProt Q04636 505-529) (peptide)”, for which the fold decrease in binding against the unmutated peptide in experiment [1] came to 38 fold.

Substance “Pob3-MBD DNDAD517-521AAAAA (from UniProt Q04636 505-529) (peptide)” displayed a fold decrease in binding against the unmutated peptide in experiment [1] of 17 fold.

In turn, “Pob3-MBD F512A (from UniProt Q04636 505-529) (peptide)” had a fold decrease in binding against the unmutated peptide in [1] above 100 fold.

Substance “Spt16 E968A (from UniProt P32558 965-990) (peptide)” returned a Kd in experiment [1] of 5000 nM.

In experiment [6], Spt16-C (domain or fragment) registered a Kd of 800 nM and a stoichiometry N of 1.

With “Spt16-MBD (Spt16^965-990) (from UniProt P32558 965-990) (peptide)”, in experiment [2], the IC50 came to 21100 nM and the Ki was determined as 2300 nM.

Consider “Spt16-MBD DES981-983AAA (from UniProt P32558 965-990) (peptide)”, for which the fold decrease in affinity against the unmutated peptide in experiment [1] was 10 fold.

In experiment [1], “Spt16-MBD EDEE987-990AAAA (from UniProt P32558 965-990) (peptide)” yielded a fold decrease in affinity against the unmutated peptide of 15 fold.

The substance “Spt16-MBD SEDD975-978AAAA (from UniProt P32558 965-990) (peptide)” came in with a fold decrease in affinity against the unmutated peptide in experiment [1] of 20 fold.

For “Spt16-MBD SEEE965-968AAAA (from UniProt P32558 965-990) (peptide)”, the fold decrease in affinity against the unmutated peptide in [1] was found to be 12 fold.

In experiment [1], “Spt16-MBD Y972A (from UniProt P32558 965-990) (peptide)” yielded a fold decrease in binding against the unmutated peptide of 48 fold.

As to “Spt16^958-990 (from UniProt P32558 958-990) (peptide)”, the values for the fold decrease in binding against H2A-H2B^30-130 in experiment [3], in experiment [4] and in experiment [5] were 12 fold, 25 fold and 42 fold, respectively.

Take “full-length H2A-H2B (from UniProt P04911 1-132; P02293 1-131) (complex)”: in experiment [7], the apparent KD of one of two EMSA binding events is 100 nM, the apparent KD of the other of two EMSA binding events was found to be 150 nM and the stoichiometry N is 2. For the same substance, in experiment [8], the Kd was 2300 nM. For the same substance, in experiment [9], the KD of one of two independent binding sites turned out to be 340 nM, the KD of the other of two independent binding sites was 1620 nM and the stoichiometry N was 2.
